From patent US20090098103A1

Key:
Assay in all cases: cell-based or functional assay
[1] = target: FVIIa variant CB734 K341M (human) (UniProt P08709)
[2] = target: FVIIa variant CB590 D196R/K197M/K199E/R290E (human) (UniProt P08709)
[3] = target: FVIIa variant CB612 D196F/K197L (human) (UniProt P08709)
[4] = target: FVIIa variant CB569 K341R (human) (UniProt P08709)
[5] = target: FVIIa variant CB601 D196Y (human) (UniProt P08709)
[6] = target: FVIIa variant CB638 K197L/K341Q (human) (UniProt P08709)
[7] = target: FVIIa variant CB735 K341D (human) (UniProt P08709)
[8] = target: FVIIa variant CB691 K197E/K199E/K341Q (human) (UniProt P08709)
[9] = target: FVIIa variant CB591 L305V/S314E/L337A/F374Y (human) (UniProt P08709)
[10] = target: FVIIa variant CB696 G237V/M298Q/K341Q (human) (UniProt P08709)
[11] = target: FVIIa variant CB617 D196V/K197E (human) (UniProt P08709)
[12] = target: FVIIa variant CB597 K197F (human) (UniProt P08709)
[13] = target: FVIIa variant CB615 D196F/K197E (human) (UniProt P08709)
[14] = target: FVIIa variant CB556 D196A (human) (UniProt P08709)
[15] = target: FVIIa variant CB697 R290N (human) (UniProt P08709)
[16] = target: FVIIa variant CB596 K197V (human) (UniProt P08709)
[17] = target: FVIIa variant CB565 T239A (human) (UniProt P08709)
[18] = target: FVIIa variant CB693 K197E/K199E/G237V/M298Q/K341Q (human) (UniProt P08709)
[19] = target: FVIIa variant CB699 R290K (human) (UniProt P08709)
[20] = target: FVIIa variant CB608 G237V (human) (UniProt P08709)
[21] = target: FVIIa variant CB700 R290M (human) (UniProt P08709)
[22] = target: FVIIa variant CB609 K341Q (human) (UniProt P08709)
[23] = target: FVIIa variant CB637 K197E/K341Q (human) (UniProt P08709)
[24] = target: FVIIa variant CB698 R290Q (human) (UniProt P08709)
[25] = target: FVIIa variant CB559 K197A (human) (UniProt P08709)
[26] = target: FVIIa variant CB564 K199A (human) (UniProt P08709)
[27] = target: FVIIa variant CB586 D196R/K197E/K199E (human) (UniProt P08709)
[28] = target: FVIIa variant CB580 D196K/R290E (human) (UniProt P08709)
[29] = target: FVIIa variant CB566 R290D (human) (UniProt P08709)
[30] = target: FVIIa variant CB589 D196R/K197M/K199E (human) (UniProt P08709)
[31] = target: FVIIa variant CB579 D196R/R290E (human) (UniProt P08709)
[32] = target: FVIIa variant CB595 K197I (human) (UniProt P08709)
[33] = target: FVIIa variant CB555 D196R (human) (UniProt P08709)
[34] = target: FVIIa variant CB603 D196L (human) (UniProt P08709)
[35] = target: FVIIa variant CB557 K197D (human) (UniProt P08709)
[36] = target: FVIIa variant CB606 G237T (human) (UniProt P08709)
[37] = target: FVIIa variant CB600 D196F (human) (UniProt P08709)
[38] = target: FVIIa variant CB733 K341N (human) (UniProt P08709)

TFPI fold resistance (fold vs wild-type FVIIa) [1]: 4.4
IC50 of TFPI inhibition of FVIIa/TF [2]: 66 nM
TFPI fold resistance (fold vs wild-type FVIIa) [2]: 0.9
pIC50 of TFPI inhibition of FVIIa/TF [2]: 7.2
TFPI fold resistance (fold vs wild-type FVIIa) [3]: < 0.3
IC50 of TFPI inhibition of FVIIa/TF [4]: 300 nM
TFPI fold resistance (fold vs wild-type FVIIa) [4]: 4.1
pIC50 of TFPI inhibition of FVIIa/TF [4]: 6.5
TFPI fold resistance (fold vs wild-type FVIIa) [5]: < 0.3
TFPI fold resistance (fold vs wild-type FVIIa) [6]: 39
TFPI fold resistance (fold vs wild-type FVIIa) [7]: 148
TFPI fold resistance (fold vs wild-type FVIIa) [8]: 34.3
IC50 of TFPI inhibition of FVIIa/TF [9]: 43 nM
TFPI fold resistance (fold vs wild-type FVIIa) [9]: 0.6
pIC50 of TFPI inhibition of FVIIa/TF [9]: 7.4
TFPI fold resistance (fold vs wild-type FVIIa) [10]: 3.2
TFPI fold resistance (fold vs wild-type FVIIa) [11]: < 0.3
TFPI fold resistance (fold vs wild-type FVIIa) [12]: < 0.3
TFPI fold resistance (fold vs wild-type FVIIa) [13]: < 0.3
IC50 of TFPI inhibition of FVIIa/TF [14]: 5 nM
TFPI fold resistance (fold vs wild-type FVIIa) [14]: < 0.3
pIC50 of TFPI inhibition of FVIIa/TF [14]: 8.3
TFPI fold resistance (fold vs wild-type FVIIa) [15]: 1.5
TFPI fold resistance (fold vs wild-type FVIIa) [16]: 0.6
IC50 of TFPI inhibition of FVIIa/TF [17]: 320 nM
TFPI fold resistance (fold vs wild-type FVIIa) [17]: 4.5
pIC50 of TFPI inhibition of FVIIa/TF [17]: 6.5
TFPI fold resistance (fold vs wild-type FVIIa) [18]: 22.1
TFPI fold resistance (fold vs wild-type FVIIa) [19]: 0.6
TFPI fold resistance (fold vs wild-type FVIIa) [20]: 0.8
TFPI fold resistance (fold vs wild-type FVIIa) [21]: 1
TFPI fold resistance (fold vs wild-type FVIIa) [22]: 12.2
TFPI fold resistance (fold vs wild-type FVIIa) [23]: 80.7
TFPI fold resistance (fold vs wild-type FVIIa) [24]: 1.2
IC50 of TFPI inhibition of FVIIa/TF [25]: 53 nM
TFPI fold resistance (fold vs wild-type FVIIa) [25]: 0.7
pIC50 of TFPI inhibition of FVIIa/TF [25]: 7.3
IC50 of TFPI inhibition of FVIIa/TF [26]: 68 nM
TFPI fold resistance (fold vs wild-type FVIIa) [26]: 0.9
pIC50 of TFPI inhibition of FVIIa/TF [26]: 7.2
IC50 of TFPI inhibition of FVIIa/TF [27]: 13 nM
TFPI fold resistance (fold vs wild-type FVIIa) [27]: < 0.3
pIC50 of TFPI inhibition of FVIIa/TF [27]: 7.9
IC50 of TFPI inhibition of FVIIa/TF [28]: 52 nM
TFPI fold resistance (fold vs wild-type FVIIa) [28]: 0.7
pIC50 of TFPI inhibition of FVIIa/TF [28]: 7.3
IC50 of TFPI inhibition of FVIIa/TF [29]: 240 nM
TFPI fold resistance (fold vs wild-type FVIIa) [29]: 3.3
pIC50 of TFPI inhibition of FVIIa/TF [29]: 6.6
IC50 of TFPI inhibition of FVIIa/TF [30]: 44 nM
TFPI fold resistance (fold vs wild-type FVIIa) [30]: 0.6
pIC50 of TFPI inhibition of FVIIa/TF [30]: 7.4
IC50 of TFPI inhibition of FVIIa/TF [31]: 28 nM
TFPI fold resistance (fold vs wild-type FVIIa) [31]: 0.4
pIC50 of TFPI inhibition of FVIIa/TF [31]: 7.6
TFPI fold resistance (fold vs wild-type FVIIa) [32]: 0.8
IC50 of TFPI inhibition of FVIIa/TF [33]: 37 nM
TFPI fold resistance (fold vs wild-type FVIIa) [33]: 0.5
pIC50 of TFPI inhibition of FVIIa/TF [33]: 7.4
TFPI fold resistance (fold vs wild-type FVIIa) [34]: < 0.3
IC50 of TFPI inhibition of FVIIa/TF [35]: 220 nM
TFPI fold resistance (fold vs wild-type FVIIa) [35]: 3
pIC50 of TFPI inhibition of FVIIa/TF [35]: 6.7
TFPI fold resistance (fold vs wild-type FVIIa) [36]: 0.3
TFPI fold resistance (fold vs wild-type FVIIa) [37]: < 0.3
TFPI fold resistance (fold vs wild-type FVIIa) [38]: 10.7
Substance: Human Recombinant TFPI (R&D Systems) (from UniProt P10646 29-282)
